This is an account of results in paper PMC4043945, “Biochemical and Molecular Characterization of Barley Plastidial ADP-Glucose Transporter (HvBT1)” (PLoS ONE, 2014).

Substrate in data set [1]: Nc1ncnc2c1ncn2[C@@H]1O[C@H](COP(=O)(O)OP(=O)(O)O[C@H]2O[C@H](CO)[C@@H](O)[C@H](O)[C@H]2O)[C@@H](O)[C@H]1O
The experiment in a line: radiolabelled uptake (Michaelis-Menten) in intact E. coli cells expressing HvBT1; empty-plasmid control subtracted. The format is cell-based, Hordeum vulgare.

Substrate in data set [2]: Nc1ncnc2c1ncn2[C@@H]1O[C@H](COP(=O)(O)OP(=O)(O)O)[C@@H](O)[C@H]1O
The experiment in a line: radiolabelled uptake (Michaelis-Menten) in intact E. coli cells expressing HvBT1; also counter-exchange and reduction of ADP-Glc uptake. The format is cell-based, Hordeum vulgare. The conditions noted are these: counter-exchange substrate with ADP-glucose.

B1: HvBT1 (barley plastidial ADP-glucose transporter) (Hordeum vulgare subsp. vulgare) (protein)
chain: MAAAMAATTMVTKNNGGSLAMDKKNWFFRPAPEVAFSWSSQPESRSLEFPRRALFASVGLSLSHDGKARPADDVAHQLAAAGDAGVQQAQKAKKAKKQQLGLRKVRVKIGNPHLRRLVSGAIAGAVSRTFVAPLETIRTHLMVGSSGADSMGGVFRWIMRTEGWPGLFRGNAVNVLRVAPSKAIEHFTYDTAKKYLTPEAGEPAKVPIPTPLVAGALAGVASTLCTYPMELVKTRLTIEKDVYDNLLHAFVKIVRDEGPGELYRGLAPSLIGVVPYAAANFYAYETLRGAYRRASGKEEVGNVPTLLIGSAAGAIASTATFPLEVARKQMQVGAVGGRQVYKNVLHAMYCILNKEGAAGLYRGLGPSCIKLMPAAGISFMCYEACKKILVDDKQDGEPQDQEETETGHTQGQAAPKSPNANGDRP
notes: codon-optimized ORF in pET16b with N-terminal His-tag, expressed in E. coli C43 (DE3)
B1: the Km in data set [1] was found to be 614.5 µM; in data set [2], 334.7 µM.

One may read the Km as the concentration of substrate that gives half-maximal velocity.
